From publication PMC3940976 (Scientific Reports, 2014)

T1: pre-assembled ER-Golgi cis-QabcR-SNARE complex GST-Sec22p/Sed5p/Bos1p/Bet1p (S. cerevisiae, UniProt P22214;Q01590;P25385;P22804)
T1 sequence 1: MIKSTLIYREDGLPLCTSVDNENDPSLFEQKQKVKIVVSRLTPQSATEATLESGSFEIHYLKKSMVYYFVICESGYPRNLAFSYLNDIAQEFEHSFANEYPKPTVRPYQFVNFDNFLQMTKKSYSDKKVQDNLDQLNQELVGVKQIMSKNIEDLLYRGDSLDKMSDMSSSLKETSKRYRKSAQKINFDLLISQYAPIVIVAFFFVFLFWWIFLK
T1 sequence 2: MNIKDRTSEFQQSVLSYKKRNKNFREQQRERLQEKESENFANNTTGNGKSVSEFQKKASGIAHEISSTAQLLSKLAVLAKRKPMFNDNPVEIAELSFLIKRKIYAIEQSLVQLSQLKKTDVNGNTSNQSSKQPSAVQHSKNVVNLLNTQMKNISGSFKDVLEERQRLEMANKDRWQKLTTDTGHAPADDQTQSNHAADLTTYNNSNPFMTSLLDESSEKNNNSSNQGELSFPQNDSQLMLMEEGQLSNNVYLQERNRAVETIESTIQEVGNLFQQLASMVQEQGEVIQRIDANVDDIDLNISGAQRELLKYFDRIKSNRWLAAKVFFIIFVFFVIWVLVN
T1 sequence 3: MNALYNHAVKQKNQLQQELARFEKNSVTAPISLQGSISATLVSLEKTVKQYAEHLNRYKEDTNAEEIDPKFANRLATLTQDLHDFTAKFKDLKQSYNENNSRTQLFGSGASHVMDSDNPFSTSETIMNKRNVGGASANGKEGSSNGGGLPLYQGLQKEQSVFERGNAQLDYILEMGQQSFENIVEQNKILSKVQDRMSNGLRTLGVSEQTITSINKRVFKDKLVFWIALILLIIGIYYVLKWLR
T1 sequence 4: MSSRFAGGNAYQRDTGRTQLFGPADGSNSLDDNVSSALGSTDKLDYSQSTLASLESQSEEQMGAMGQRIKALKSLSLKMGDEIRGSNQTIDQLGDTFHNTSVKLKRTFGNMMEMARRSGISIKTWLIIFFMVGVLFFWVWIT

T2: pre-assembled intra-Golgi cis-QabcR-SNARE complex GST-Sec22p/Sed5p/Gos1p/Sft1p (S. cerevisiae, UniProt P22214;Q01590;P38736;P43682)
T2 sequence 1: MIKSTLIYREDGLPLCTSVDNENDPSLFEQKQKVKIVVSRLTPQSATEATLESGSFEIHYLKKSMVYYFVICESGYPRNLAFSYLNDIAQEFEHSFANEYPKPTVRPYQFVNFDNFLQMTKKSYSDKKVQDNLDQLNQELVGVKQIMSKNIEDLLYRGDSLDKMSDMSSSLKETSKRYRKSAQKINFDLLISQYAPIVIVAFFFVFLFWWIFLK
T2 sequence 2: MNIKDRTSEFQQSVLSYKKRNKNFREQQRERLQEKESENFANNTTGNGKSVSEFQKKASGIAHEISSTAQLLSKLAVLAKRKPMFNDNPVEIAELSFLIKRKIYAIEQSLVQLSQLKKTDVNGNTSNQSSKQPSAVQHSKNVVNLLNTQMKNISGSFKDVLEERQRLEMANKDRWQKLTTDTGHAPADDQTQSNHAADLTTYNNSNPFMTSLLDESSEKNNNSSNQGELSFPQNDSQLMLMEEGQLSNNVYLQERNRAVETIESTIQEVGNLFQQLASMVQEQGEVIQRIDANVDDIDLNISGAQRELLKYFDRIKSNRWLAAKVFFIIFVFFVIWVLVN
T2 sequence 3: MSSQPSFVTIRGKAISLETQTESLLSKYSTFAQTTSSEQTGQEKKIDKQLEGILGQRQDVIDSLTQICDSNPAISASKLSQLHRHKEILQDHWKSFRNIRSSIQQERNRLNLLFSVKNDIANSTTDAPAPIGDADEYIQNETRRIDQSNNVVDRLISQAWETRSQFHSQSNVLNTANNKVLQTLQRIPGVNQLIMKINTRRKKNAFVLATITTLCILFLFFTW
T2 sequence 4: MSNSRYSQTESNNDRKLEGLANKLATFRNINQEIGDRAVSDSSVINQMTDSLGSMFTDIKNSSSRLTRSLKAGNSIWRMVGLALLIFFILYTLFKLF

T3: ER-Golgi 3Q-SNARE set Sed5p/Bos1p/Bet1p reconstituted on proteoliposomes (S. cerevisiae, UniProt Q01590;P25385;P22804)
T3 sequence 1: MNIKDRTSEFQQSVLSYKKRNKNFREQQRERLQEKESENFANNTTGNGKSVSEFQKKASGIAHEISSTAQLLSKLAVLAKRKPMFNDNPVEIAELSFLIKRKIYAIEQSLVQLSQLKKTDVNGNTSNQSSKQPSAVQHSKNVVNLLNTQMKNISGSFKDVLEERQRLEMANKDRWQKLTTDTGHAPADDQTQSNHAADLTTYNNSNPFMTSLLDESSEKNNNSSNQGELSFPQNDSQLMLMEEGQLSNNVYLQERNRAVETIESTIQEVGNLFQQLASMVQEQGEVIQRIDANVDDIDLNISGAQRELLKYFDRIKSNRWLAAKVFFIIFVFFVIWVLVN
T3 sequence 2: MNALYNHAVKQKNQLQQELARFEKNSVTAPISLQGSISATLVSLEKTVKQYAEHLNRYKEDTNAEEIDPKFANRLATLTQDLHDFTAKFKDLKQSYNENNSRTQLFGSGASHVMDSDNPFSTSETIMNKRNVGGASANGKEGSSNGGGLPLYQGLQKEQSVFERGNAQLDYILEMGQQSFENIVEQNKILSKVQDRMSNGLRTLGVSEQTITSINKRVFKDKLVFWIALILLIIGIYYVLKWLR
T3 sequence 3: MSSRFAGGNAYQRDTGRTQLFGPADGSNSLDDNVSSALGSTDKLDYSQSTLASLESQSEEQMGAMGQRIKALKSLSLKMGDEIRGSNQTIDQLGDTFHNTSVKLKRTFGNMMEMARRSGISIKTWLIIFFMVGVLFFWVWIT

T4: mixed 3Q-SNARE set Sed5p/Gos1p/Bet1p reconstituted on proteoliposomes (S. cerevisiae, UniProt Q01590;P38736;P22804)
T4 sequence 1: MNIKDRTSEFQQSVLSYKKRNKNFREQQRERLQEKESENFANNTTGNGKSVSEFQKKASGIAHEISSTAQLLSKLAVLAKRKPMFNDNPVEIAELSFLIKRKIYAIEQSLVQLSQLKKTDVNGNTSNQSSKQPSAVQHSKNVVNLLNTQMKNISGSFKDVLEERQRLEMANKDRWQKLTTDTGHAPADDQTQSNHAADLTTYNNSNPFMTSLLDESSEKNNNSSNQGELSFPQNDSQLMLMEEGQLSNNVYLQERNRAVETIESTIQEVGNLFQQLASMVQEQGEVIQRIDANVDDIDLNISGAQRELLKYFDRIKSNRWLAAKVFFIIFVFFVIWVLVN
T4 sequence 2: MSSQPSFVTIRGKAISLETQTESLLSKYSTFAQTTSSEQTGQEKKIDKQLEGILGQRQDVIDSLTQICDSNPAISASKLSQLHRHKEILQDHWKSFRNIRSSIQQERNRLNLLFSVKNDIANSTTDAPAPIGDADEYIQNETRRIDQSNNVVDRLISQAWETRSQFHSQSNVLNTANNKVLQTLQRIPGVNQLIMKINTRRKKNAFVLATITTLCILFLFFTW
T4 sequence 3: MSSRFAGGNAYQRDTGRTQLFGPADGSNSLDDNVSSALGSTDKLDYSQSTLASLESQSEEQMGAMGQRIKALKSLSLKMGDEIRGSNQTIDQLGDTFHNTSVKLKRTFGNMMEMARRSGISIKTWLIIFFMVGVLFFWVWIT

B1: intra-Golgi 3Q-SNARE set Sed5p/Gos1p/Sft1p reconstituted on proteoliposomes (complex)
chain 1: MNIKDRTSEFQQSVLSYKKRNKNFREQQRERLQEKESENFANNTTGNGKSVSEFQKKASGIAHEISSTAQLLSKLAVLAKRKPMFNDNPVEIAELSFLIKRKIYAIEQSLVQLSQLKKTDVNGNTSNQSSKQPSAVQHSKNVVNLLNTQMKNISGSFKDVLEERQRLEMANKDRWQKLTTDTGHAPADDQTQSNHAADLTTYNNSNPFMTSLLDESSEKNNNSSNQGELSFPQNDSQLMLMEEGQLSNNVYLQERNRAVETIESTIQEVGNLFQQLASMVQEQGEVIQRIDANVDDIDLNISGAQRELLKYFDRIKSNRWLAAKVFFIIFVFFVIWVLVN
chain 2: MSSQPSFVTIRGKAISLETQTESLLSKYSTFAQTTSSEQTGQEKKIDKQLEGILGQRQDVIDSLTQICDSNPAISASKLSQLHRHKEILQDHWKSFRNIRSSIQQERNRLNLLFSVKNDIANSTTDAPAPIGDADEYIQNETRRIDQSNNVVDRLISQAWETRSQFHSQSNVLNTANNKVLQTLQRIPGVNQLIMKINTRRKKNAFVLATITTLCILFLFFTW
chain 3: MSNSRYSQTESNNDRKLEGLANKLATFRNINQEIGDRAVSDSSVINQMTDSLGSMFTDIKNSSSRLTRSLKAGNSIWRMVGLALLIFFILYTLFKLF
B2: mixed 3Q-SNARE set Sed5p/Vti1p/Tlg1p reconstituted on proteoliposomes (complex)
chain 1: MNIKDRTSEFQQSVLSYKKRNKNFREQQRERLQEKESENFANNTTGNGKSVSEFQKKASGIAHEISSTAQLLSKLAVLAKRKPMFNDNPVEIAELSFLIKRKIYAIEQSLVQLSQLKKTDVNGNTSNQSSKQPSAVQHSKNVVNLLNTQMKNISGSFKDVLEERQRLEMANKDRWQKLTTDTGHAPADDQTQSNHAADLTTYNNSNPFMTSLLDESSEKNNNSSNQGELSFPQNDSQLMLMEEGQLSNNVYLQERNRAVETIESTIQEVGNLFQQLASMVQEQGEVIQRIDANVDDIDLNISGAQRELLKYFDRIKSNRWLAAKVFFIIFVFFVIWVLVN
chain 2: MSSLLISYESDFKTTLEQAKASLAEAPSQPLSQRNTTLKHVEQQQDELFDLLDQMDVEVNNSIGDASERATYKAKLREWKKTIQSDIKRPLQSLVDSGDRDRLFGDLNASNIDDDQRQQLLSNHAILQKSGDRLKDASRIANETEGIGSQIMMDLRSQRETLENARQTLFQADSYVDKSIKTLKTMTRRLVANKFISYAIIAVLILLILLVLFSKFK
chain 3: […]
B3: His6-tagged Sly1p (natural protein)
chain: MAVEEIASRKDISLRDMQISAILKMLFLNKDLNNNDNITTITDDIFNQQEIIWKVLILDIKSTATISSVLRVNDLLKAGITVHSLIKQDRSPLPDVPAIYFVSPTKENIDIIVNDLKSDKYSEFYINFTSSLPRNLLEDLAQQVSITGKSDKIKQVYDQYLDFIVTEPELFSLEISNAYLTLNDPKTTEEEITGLCANIADGLFNTVLTINSIPIIRAAKGGPAEIIAEKLGTKLRDFVINTNSSSTSTLQGNDSLERGVLIILDRNIDFASMFSHSWIYQCMVFDIFKLSRNTVTIPLESKENGTDNTTAKPLATKKYDIEPNDFFWMENSHLPFPEAAENVEAALNTYKEEAAEITRKTGVTNISDLDPNSNNDTVQIQEVVKKLPELTAKKNTIDTHMNIFAALLSQLESKSLDTFFEVEQDPGSTKTRSRFLDILKDGKTNNLEDKLRSFIVLYLTSTTGLPKDFVQNVENYFKENDYDINALKYVYKLREFMQLSNMSLQNKSLEDGSDSAFKPSNLTLSGIYGLTEGKLQGGVGSLISGIKKLLPEKKTIPITNVVDAIMDPLNSSQKNLETTDSYLYIDPKITRGSHTRKPKRQSYNKSLVFVVGGGNYLEYQNLQEWAHSQLHNPKKVMYGSTAITTPAEFLNEISRLGASNSSNNDA

Experiments:
[1] = biological target: B3; assay: co-sedimentation
[2] = biological target: T1, pre-assembled ER-Golgi cis-QabcR-SNARE …; assay: pull-down
[3] = biological target: T2, pre-assembled intra-Golgi …; assay: pull-down
[4] = biological target: T3, ER-Golgi 3Q-SNARE set Sed5p/Bos1p/Bet1p …; assay: co-sedimentation
[5] = biological target: T4, mixed 3Q-SNARE set Sed5p/Gos1p/Bet1p …; assay: co-sedimentation
[6] = biological target: mixed 3Q-SNARE set Sed5p/Vti1p/Bet1p reconstituted on proteoliposomes (S. cerevisiae, UniProt Q01590;Q04338;P22804); assay: co-sedimentation
[7] = biological target: mixed 3Q-SNARE set Sed5p/Vti1p/Vam7p reconstituted on proteoliposomes (S. cerevisiae, UniProt Q01590;Q04338;P32912); assay: co-sedimentation
Chain of mixed 3Q-SNARE set Sed5p/Vti1p/Vam7p reconstituted on proteoliposomes (P32912 whole entry, one chain of several): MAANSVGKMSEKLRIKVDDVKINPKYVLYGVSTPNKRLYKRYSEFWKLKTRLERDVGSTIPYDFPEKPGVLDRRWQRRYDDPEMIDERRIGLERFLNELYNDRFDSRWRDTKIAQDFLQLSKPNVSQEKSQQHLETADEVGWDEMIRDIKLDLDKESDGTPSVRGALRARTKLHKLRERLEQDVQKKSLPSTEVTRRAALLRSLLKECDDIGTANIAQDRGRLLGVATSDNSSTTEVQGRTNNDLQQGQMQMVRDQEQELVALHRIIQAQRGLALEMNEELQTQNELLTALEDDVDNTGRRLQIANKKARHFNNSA

Binder	binding result [1]	binding result [2]	binding result [3]	binding result [4]	binding result [5]	binding result [6]	binding result [7]
B1	binds						
B2	binds						
B3		binds	binds	binds	binds	binds	binds
